Laboratory results taken from publication PMC2763920.
Square brackets hold non-standard residues; d marks the D form. Ends that are not written are not given here. pY = N[C@@H](Cc1ccc(OP(=O)(O)O)cc1)C(=O)O

Assays:
[1] = molecular target: Fyn-SH3-SH2 (GST tag cleaved with thrombin); experiment: fluorescence polarisation
[2] = molecular target: Fyn-SH3-SH2 (GST tag cleaved with thrombin); experiment: NECEEM
[3] = molecular target: Fyn-SH3-SH2 (GST tag cleaved with thrombin); experiment: high-speed capillary electrophoresis

How did the t1/2 of the complex [1] turn out when fluorescein-EEEEPQ[pY]EEIPIYL [Fluor-Fyn peptide (fluorescein-EEEEPQpYEEIPIYL)] was run?
Its t1/2 of the complex is 53.5 s.

And the t1/2 of the complex [2]?
Its t1/2 of the complex is 101 s.

And the t1/2 of the complex [3]?
Its t1/2 of the complex is 48.4 s.
